# Assay results reported in patent US20050123977A1, “Assay and treatment” (Ludwig Institute for Cancer Research, priority 2003, published 2005).
# B1: iASPP: human iASPP protein (SEQ ID NO: 4), expressed from plasmid; inhibits apoptotic function of p53 (protein, listed as Homo sapiens)
# chain: MWMKDPVARPLSPTRLQPALPPEAQSVPELEEVARVLAEIPRPLKRRGSMEQAPAVALPPTHKKQYQQIISRLFHRHGGPGPGGRSQSCPPSLRDLRPGQGPLLLPHQLPFHRPAPSQSSPPEQPQSMEMRSVLRKAGSPRKARRARLNPLVLLLDAALTGELEVVQQAVKEMNDPSQPNEEGITALHNAICGANYSIVDFLITAGANVNSPDSHGWTPLHCAASCNDTVICMALVQHGAAIFATTLSDGATAFEKCDPYREGYADCATYLADVEQSMGLMNSGAVYALWDYSAEFGDELSFREGESVTVLRRDGPEETDWWWAALHGQEGYVPRNYFGLFPRVKPQRSK
# B2: ASPP1: human ASPP1 protein (SEQ ID NO: 7), V5-tagged, expressed from CMV-driven plasmid; stimulates apoptotic function of p53 (protein, listed as Homo sapiens)
# chain: MMPMILTVFLSNNEQILTEVPITPETTCRDVVEFCKEPGEGSCHLAEVWRGNERPIPFDHMMYEHLQIWGPRREEVKFFLRHEDSPTENSEQGGRQTQEQRTQRNVINVPGDKRTEYGVGNPRVELTLSELQDMAARQQQQIENQQQMLVAKEQRLHFLKQQERRQQQSISENEKLQKLKERVEAQENKLKKIRAMRGQVDYSKIMNGNLSAEIERFSAMFQEKKQEVQTAILRVDQLSQQLEDLKKGKLNGFQSYNGKLTGPAAVELKRLYQELQIRNQLNQEQNSKLQQQKELLNKRNMEVAMMDKRISELRERLYGKKIQLNRVNGTSSPQSPLSTSGRVAAVGPYIQVPSAGSFPVLGDPIKPQSLSIASNAAHGRSKSANDGNWPTLKQNSSSSVKPVQVAGADWKDPSVEGSVKQGTVSSQPVPFSALGPTEKPGIEIGKVPPPIPGVGKQLPPSYGTYPSPTPLGPGSTSSLERRKEGSLPRPSAGLPSRQRPTLLPATGSTPQPGSSQQIQQRISVPPSPTYPPAGPPAFPAGDSKPELPLTVAIRPFLADKGSRPQSPRKGPQTVNSSSIYSMYLQQATPPKNYQPAAHSALNKSVKAVYGKPVLPSGSTSPSPLPFLHGSLSTGTPQPQPPSESTEKEPEQDGPAAPADGSTVESLPRPLSPTKLTPIVHSPLRYQSDADLEALRRKLANAPRPLKKRSSITEPEGPGGPNIQKLLYQRFNTLAGGMEGTPFYQPSPSQDFMGTLADVDNGNTNANGNLEELPPAQPTAPLPAEPAPSSDANDNELPSPEPEELICPQTTHQTAEPAEDNNNNVATVPTTEQIPSPVAEAPSPGEEQVPPAPLPPASHPPATSTNKRTNLKKPNSERTGHGLRVRFNPLALLLDASLEGEFDLVQRIIYEVEDPSKPNDEGITPLHNAVCAGHHHIVKFLLDFGVNVNAADSDGWTPLHCAASCNSVHLCKQLVESGAAIFASTISDIETAADKCEEMEEGYIQCSQFLYGVQEKLGVMNKGVAYALWDYEAQNSDELSFHEGDALTILRRKDESETEWWWARLGDREGYVPKNLLGLYPRIKPRQRTLA
# modifications: V5 tag
# notes: stimulates apoptotic function of p53
# B3: ASPP2: human ASPP2 protein (SEQ ID NO: 8), expressed from CMV-driven plasmid; stimulates apoptotic function of p53 (protein, listed as Homo sapiens)
# chain: MMPMFLTVYLSNNEQHFTEVPVTPETICRDVVDLCKEPGESDCHLAEVWCGSERPVADNERMFDVLQRFGSQRNEVRFFLRHERPPGRDIVSGPRSQDPSLKRNGVKVPGEYRRKENGVNSPRMDLTLAELQEMASRQQQQIEAQQQLLATKEQRLKFLKQQDQRQQQQVAEQEKLKRLKEIAENQEAKLKKVRALKGHVEQKRLSNGKLVEEIEQMNNLFQQKQRELVLAVSKVEELTRQLEMLKNGRIDSHHDNQSAVAELDRLYKELQLRNKLNQEQNAKLQQQRECLNKRNSEVAVMDKRVNELRDRLWKKKAALQQKENLPVSSDGNLPQQAASAPSRVAAVGPYIQSSTMPRMPSRPELLVKPALPDGSLVIQASEGPMKIQTLPNMRSGAASQTKGSKIHPVGPDWSPSNADLFPSQGSASVPQSTGNALDQVDDGEVPLREKEKKVRPFSMFDAVDQSNAPPSFGTLRKNQSSEDILRDAQVANKNVAKVPPPVPTKPKQINLPYFGQTNQPPSDIKPDGSSQQLSTVVPSMGTKPKPAGQQPRVLLSPSIPSVGQDQTLSPGSKQESPPAAAVRPFTPQPSKDTLLPPFRKPQTVAASSIYSMYTQQQAPGKNFQQAVQSALTKTHTRGPHFSSVYGKPVIAAAQNQQQHPENIYSNSQGKPGSPEPETEPVSSVQENHENERIPRPLSPTKLLPFLSNPYRNQSDADLEALRKKLSNAPRPLKKRSSITEPEGPNGPNIQKLLYQRTTIAAMETISVPSYPSKSASVTASSESPVEIQNPYLHVEPEKEVVSLVPESLSPEDVGNASTENSDMPAPSPGLDYEPEGVPDNSPNLQNNPEEPNPEAPHVLDVYLEEYPPYPPPPYPSGEPEGPGEDSVSMRPPEITGQVSLPPGKRTNLRKTGSERIAHGMRVKFNPLALLLDSSLEGEFDLVQRIIYEVDDPSLPNDEGITALHNAVCAGHTEIVKFLVQFGVNVNAADSDGWTPLHCAASCNNVQVCKFLVESGAAVFAMTYSDMQTAADKCEEMEEGYTQCSQFLYGVQEKMGIMNKGVIYALWDYEPQNDDELPMKEGDCMTIIHREDEDEIEWWWARLNDKEGYVPRNLLGLYPRIKPRQRSLA
# Experiments:
# p53Pro72 [1] = biological target: T1, p53Pro72 (Homo sapiens, UniProt P04637); experiment: Transactivation assay (luciferase reporter), p53Pro72; type: cell-based; conditions: Saos-2 cells; for transcriptional activity of p53Pro72 on Bax promoter: co-transfection
# T1 construct: expressed in transfected cells; host or cells: Saos-2 or H1299 cells
# Procedure: (§1) Saos-2 or H1299 cells (5×10^5) were plated 24 hours prior to transfection in 6 cm dishes. All transactivation assays contained 1 μg of reporter plasmid. 50 ng of p53Pro72 or p53Arg72, 4 μg of ASPP1 or ASPP2, 2 μg of iASPP expression plasmids were used as indicated. In FIG. 4C cells were also co-transfected with 3 μg of pSuper plasmid containing iASPP RNAi as indicated. Cells were lysed in Reporter Lysis Buffer 16-24 hours after transfection and assayed using the Luciferase Assay kit (Promega, Wis., USA). The fold activation of a particular reporter was determined by the activity of the transfected plasmid divided by the activity of vector alone.
# p53Pro72 [2] = biological target: T1, p53Pro72; experiment: Flow cytometry apoptosis assay, p53Pro72; type: cell-based
# Procedure: Cells (10^6) were plated 24-48 hours prior to transfection in 10 cm plates. All cells were transfected with 2 μg of a plasmid expressing CD20 as a transfection marker. Transfection consisted of 1 μg of human p53Pro72 or p53Arg72, 10 μg of ASPP1 or ASPP2, 4 μg of iASPP and 8 μg of pSuper plasmid containing RNAi of iASPP as indicated. 36 hours after the transfection, both attached and floating cells were harvested and analysed as described.
# p53Pro72 and p53Arg72 = conditions: RKO cells heterozygous for p53Pro72/p53Arg72
# Procedure: For western blotting, cells were lysed in either NP40 lysis buffer or luciferase reporter lysis buffer. Between 15-100 μg of protein extract was loaded on SDS-PAGE gels. For immunoprecipitation, cells were lysed in NP40 lysis buffer and pre-cleared with protein G beads for 1 hour at 4° C. The protein concentration was determined and then 1-2 mg of the extract was incubated with antibody pre-bound to protein G beads for 4 hours or overnight at 4° C. The beads were washed twice in NP40 lysis buffer and twice in NET buffer. The IP beads were mixed with 5× sample buffer and loaded onto an SDS-PAGE gel. The gels were wet transferred on to Protran nitrocellulose membrane and the resulting blots were first incubated with primary antibody and subsequently with the appropriate secondary HRP conjugated antibody (Dako). The blot was exposed to hyperfilm following the use of ECL substrate solution (Amersham Life Science).
# p53Pro72, p53Arg72, ASPP1, ASPP2 and iASPP were in vitro translated and labelled with ^35S -Methionine using the TNT T7 Quick coupled Transcription/Translation System (Promega). The lysates containing indicated proteins were incubated at 30° C. for 1 hour. The anti-ASPP1, ASPP2 or iASPP antibodies immobilised on protein G agarose beads were added to the binding reactions and incubated on a rotating wheel at 4° C. for 16 hours. The beads were then washed with PBS. The bound proteins were released in SDS gel sample buffer and analysed by 10% SDS-polyacrylamide gel electrophoresis (PAGE). Results were visualised using autoradiography for ^35S -Methionine labelled proteins. For immunoprecipitation using cell lysates, the expression of endogenous ASPP1, ASPP2, iASPP, p53Pro72 and p53Arg72 were detected by western blot using antibodies specific to these proteins derived from different species from that used in IP.
# p53Arg72 = biological target: T2, p53Arg72 (Homo sapiens, UniProt P04637, P72R); experiment: Transactivation assay (luciferase reporter), p53Arg72; type: cell-based; conditions: Saos-2 cells, Bax promoter, co-transfection
# T2 construct: expressed in transfected cells; host or cells: Saos-2 or H1299 cells
# Procedure: as §1
molecule,measurement,setting,value
B1,transactivation function of p53Pro72,p53Pro72 [1]; promoter not stated in text (FIG. 2C),selectively inhibited
same,apoptotic function of p53Pro72,p53Pro72 [2]; Saos-2 cells,selectively inhibited
same,co-immunoprecipitation of p53Pro72 compared with p53Arg72,p53Pro72 and p53Arg72,clearly larger
B2,transcriptional activity of p53Pro72 on Bax promoter,p53Pro72 [1],significantly enhanced
same,transactivation function of p53Arg72,p53Arg72,very little effect
same,apoptotic function of p53Pro72,p53Pro72 [2]; H1299 cells,enhanced
same,apoptotic function of p53Pro72,p53Pro72 [2]; Saos-2 cells,selectively enhance
same,co-immunoprecipitation of p53Pro72 compared with p53Arg72,p53Pro72 and p53Arg72,to a lesser extent
B3,transcriptional activity of p53Pro72 on Bax promoter,p53Pro72 [1],significantly enhanced
same,transactivation function of p53Arg72,p53Arg72,very little effect
same,apoptotic function of p53Pro72,p53Pro72 [2]; H1299 cells,enhanced
same,apoptotic function of p53Pro72,p53Pro72 [2]; Saos-2 cells,selectively enhance
same,co-immunoprecipitation of p53Pro72 compared with p53Arg72,p53Pro72 and p53Arg72,Selective binding
